Paper PMC5499865 (Nucleic Acids Research, 2017)

Target: His-MPK6 (Arabidopsis thaliana, UniProt Q39026 1-395)
Test: pull-down

Chain of His-MPK6 (Q39026 whole entry): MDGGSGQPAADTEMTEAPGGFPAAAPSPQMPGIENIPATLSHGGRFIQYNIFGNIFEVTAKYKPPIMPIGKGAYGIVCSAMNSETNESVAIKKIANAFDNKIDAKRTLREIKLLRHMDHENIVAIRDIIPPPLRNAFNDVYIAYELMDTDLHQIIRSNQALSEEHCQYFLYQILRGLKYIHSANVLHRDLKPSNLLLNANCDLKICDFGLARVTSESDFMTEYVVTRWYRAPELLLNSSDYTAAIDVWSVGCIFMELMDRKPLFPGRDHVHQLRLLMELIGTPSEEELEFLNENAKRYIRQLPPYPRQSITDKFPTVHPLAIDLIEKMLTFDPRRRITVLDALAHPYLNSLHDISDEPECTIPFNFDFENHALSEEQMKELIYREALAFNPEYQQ

binding result: binds
B1: GST-MYB15 (natural protein, Arabidopsis thaliana, UniProt Q9LTC4 1-285, looked up)
chain: MGRAPCCEKMGLKRGPWTPEEDQILVSFILNHGHSNWRALPKQAGLLRCGKSCRLRWMNYLKPDIKRGNFTKEEEDAIISLHQILGNRWSAIAAKLPGRTDNEIKNVWHTHLKKRLEDYQPAKPKTSNKKKGTKPKSESVITSSNSTRSESELADSSNPSGESLFSTSPSTSEVSSMTLISHDGYSNEINMDNKPGDISTIDQECVSFETFGADIDESFWKETLYSQDEHNYVSNDLEVAGLVEIQQEFQNLGSANNEMIFDSEMDFWFDVLARTGGEQDLLAGL
